Experimental data taken from the DeepSol protein solubility set.

Test: soluble on expression in E. coli; label from the status in PepcDB or PDB records

## MNSENSFSSSEHITVLLHEAVNGLALKENGIYIDGTFGRGGHSRFILSQLSSNGRLIAVDRDPRAIAEAHKIQDLRFQIEHNSFSHIPEICDKLNLVGKIDGILLDLGVSSPQLDEAERGFSFMKDGPLDMRMDTTQGLSAEEWLKQVSIEDLTWVLKTFGEERFAKRIATAIVDFNKSAVKNGTEFLSRTSQLAELISQAVPFKDKHKHPATRSFQAIRIFINSELDELESLLNSALDMLAPEGRLSIISFHSLEDRMVKHFMKKQSKGEDIPKGLPLREDQIQRNQKLRIIGKAIQPSDAEIQANPRSRSAILRVAERILEHHHHHH
  soluble on expression in E. coli: soluble

## MGSDKIHHHHHHMFKDEKTPDEYAEEARSDIAAGNYAEAIEKIDKAIDKEPRNPSLHLIRADALYRQGNYSSAIEELNFTEHMDKNNPELFSLKSICYGSMGDFKRSKEEADKAIKADQSYPFAYYNRAAALRGLGDVDGAEKDFRKYIEMQPSDPDPHYDLAEIYFEKKDYKKAMEEVKAVLRNDKSNEKAYDLKLQIHLATNDGEGYFKALLEAFKNTENFKYIGTLTDGLIGIGSYDTAEDILKQFIKVYEKEPYLYDLLARTYDQEGKAKEADETYNTLLRLNNSRESHIYWFDYLLDSGRYDDLLSEIEKSGFKDEEILEIEYIAQDASGKHEEALKTAGELVKMDQTPYSRSLYATQLRKLGKLEDALTYLGSGDQDSDEVQFEKFNILLEMGNHSLAMESLKNSITASDDDEERLGHLITGISSAISKADFNTVNNFLDGLKMPEEEENIAVYALKGIVSGIFESYSKGKDMLIGLDEDRDNVCDFASYLANLMQGKASEFLNKFIEENCKKPEE
  soluble on expression in E. coli: not soluble

## MDRGTVFTFSPKGDIIELPVGATALDFAFMVHTQVGCKCVGAKVNGRMVTIDHKLKSGDKVEIITSKNSKGPSLEHHHHHH
  soluble on expression in E. coli: not soluble

## MGSDKIHHHHHHMISDHDGEFGSQNVRAALPSLMALRCFEAAARHEHFSRAADELHLTHGAVSRAVRLLEDDLGVALFERRSRRVFLTDAGRKLAQAVHDGLHLMRQAAHELRTDAARAQRWVLSCEPTLLMRWLIPRWPDFQATYPRVDIHLAAAGGPFSFDHGIDIAIRRNDFAWPAGYHAERLFTERVGPVCRPDRVDTWFSGGRDDRALKRGAPRLHTRTRPDAWKEWAAAAHQPAGSGRGQMFDHFYFSLQAAVAGLGVAIGPWHLVRDDLESEVLVAPMGFVQDGSHYCLLTPEPVKDGSAQSALLDWLRTMA
  soluble on expression in E. coli: not soluble

## MRIKPECALCITRQVVDVAKEITDDKSEQFKIIAWGIEKISEAYGESSVPSFMGTEIHRHIKKMSKNSDPYKNLKNVANEFALKYLNDVEKLLESDDELERLQNKVKLSIAGNVIDFGPYSTGVNIEKMVKDTLDGKLDVDFSKELLDELKNSKKVFYTCDNAGEIVFDLPLIKELKNYVEVVVSVKGSPILNDATLDDVKTAGIDKVTKVITSGTDAIGVRFEESSEEFINELNSSDFVIAKGMGNYESLTEYEEKHGQNSEKIPVYYILKAKCEPVAEHIGVSEGDNVLLRKEISKVLEHHHHHH
  soluble on expression in E. coli: soluble

## MNINRFVLAAPGSGSGKTTVAALLCLALRARGLSVQPFKLGPDYLDPTHLTRAAGRETRNLDSFLLAPERLQTLFARAAAQAEVCVIEGVMGLYDGRDPGSDEHSTAALARLLGARVVLVIDAGGMARTVAAVAAGLRDFGEGVNVAGVILNRVGSVRHAELCAEALTQVGLACLGFLLQDDALRLPSRHLGLLSAQQASWDEAAALAAARYLDLDALLNVTRAPDLSSSSSMSPPPSTRIAYAFDSAFHFYYPDALDELRSCGAELVPFSPLEDAGVPEDVGGLLLGGGYPEAHAAELAANERMRRSVRAFAASGRPVVGECGGLMYLSETLEDENGVTHEMCGVVPYRTRMARRLSLGYRDALSLADSPLLPAGTAIRGHEFHFSTLTHEPTHPAYRWRTHDGQEVAEGYARGNVLASYLHLHYGGFPAVAARLVERCQLEHHHHHH
  soluble on expression in E. coli: not soluble

## AHHHHHHGSQRALVTLTPSESKRLIAKAVVAMDEVQKALKNGFIYIATGTTAAYIAEELLGEKIEKEKWTVGTISKGRTCVTPKTTWPKHLVLYKGKLFEGEPLEALKEMGPEDVFIKGGNAIDINWNVAVFAAAPDGGTIGKTFGWTITKGVFTITPISLEKFVPTPVKESAKLTGIYSFNWGTGLYAALVPIPHAHPVTEVEAYRILAGVEAIPIAAGGAGGAEGSVTLVLEGDDENMEKAKEITKAVKGEPPLEPYTEDCSICPFAKICGLGSGSF
  soluble on expression in E. coli: not soluble

## PREPVVNDEMCDVCEVWTAESLFPCRVCTRVFHDGCLRRMGYIQGDSAAEVTEMAHTETGWSCHYCDNINLLLTEE
  soluble on expression in E. coli: soluble

## MSLKIILPVKPISQLFPIPFVMGCEGVSAAMLLQFNNYDIKATQIMSHWPKHPTNPYKGYVGHPLLVKFGHHQTIFPDAFAPFLKQYDSRIVDGTGTSLNQLEKFIDKGQPVIIYHTSLGSKPLRRVFHFDNQPTKLVSNIHVTLLIGYDDDYYYYIDPLWSRLSKFVIFPSIIPNSKQIIKIKKHTLENSYNAPGKKCIYIDNEGHHHHHH
  soluble on expression in E. coli: not soluble

## MSLKEANLLIDLRGEPGINCNGFCKFCYFRKVNKNNPQPFGCRYCQFTVGCDYCMYSVREINGDFIPLPFALMELQSSLLFKRYSKVNLTAGGDVSCYPQLEELCKAINNIGLKIHLGYTSGKGFDNVEIAKNLVDYGVDEVTFSVFSTNPKLRKEWMNDKNAETALKCLRYFCENCEVHCAIIVIPGVNDGEELKKTVSDLVDWGANAVILMRFANSEEQGLILGNAPLIEGIKPHSVEEFKNIVDEIHNEFGDYIRVTGTPLHDPVAGTPFALAKEENSHILERLKDKINGEATIITGNVAYPFLKKIFDETSVNVVKVNKDIADLITAKDLEKLDLKDVKETVFIPPKAFVHDRVAEEILRRDGVDRIVVRGVEQLTLDGEVSGIYTREEALKFEIEAFEELIGMINFFGMKKQEGHHHHHH
  soluble on expression in E. coli: soluble

## MKVFGISGSPRLQGTHFAVNYALNYLKEKGAEVRYFSVSRKKINFCLHCDYCIKKKEGCIHKDDMEEVYENLIWADGVIIGTPVYQGNVTGQLKTLMDRCRAILAKNPKVLRGRVGMAIAVGGDRNGGQEIALRTIHDFFIINEMIPVGGGSFGANLGATFWSKDRGKKGVEEDEEGLRVLRKTLNRFYEVLKEKRGLLEHHHHHH
  soluble on expression in E. coli: not soluble

## QIQLTQSPSSLSASVGDRVTITCSASSSVNSSALFWYQQKPGKAPKPWIYLTSNLASGVPSRFSGSGSGTDYTLTISSLQPEDFATYYCQQISGNPWTFGQGTKVEIKRADAAPTVSIFPPSSEQLTSGGASVVCFLNNFYPKDINVKWKIDGSERQNGVLNSWTDQDSKDSTYSMSSTLTLTKDEYERHNSYTCEATHKTSTSPIVKSFNRNEC
  soluble on expression in E. coli: soluble

## MSRQNPVRSTRGNSLRAREAQQAQDAPLFQESSSNVFVVEKVLNKRLTRGGSEYYIKWQGFPESECSWEPIENLQCDRMIQEYEKEAAKRTTRKRRYSPQPSTSSSAELQPSTSDEWAGKTLKTIIGITKAPGELHFLCKFSDDSVHLIPLREANVRFPSQVIKFYETRLVLQGVSPTIPGGMS
  soluble on expression in E. coli: not soluble

## MTRFAEKVAIITGSSNGIGRATAVLFAREGAKVTITGRHAERLEETRQQILAAGVSEQNVNSVVADVTTDAGQDEILSTTLGKFGKLDILVNNAGAAIPDSQSKTGTAQSIESYDATLNLNLRSVIALTKKAVPHLSSTKGEIVNISSIASGLHATPDFPYYSIAKAAIDQYTRNTAIDLIQHGIRVNSISPGLVATGFGSAMGMPEETSKKFYSTMATMKECVPAGVMGQPQDIAEVIAFLADRKTSSYIIGHQLVVDGGSSLIMGLHCQDFAKLLH
  soluble on expression in E. coli: soluble

## MSIRNSASRDDTSASVEDSILDAARSCILDFGLRRTTLAEVARRAGVSRPTVYRRWSDTRAVVADLMTREIAAVMPEFSVEESVHRQLVDAVVHVSTEVRDHPLFVKILRSDQELFTTYILERLGTSQRAIIDQVAFAVSTGQDQGSIRAGDSRHIATMVLLIAQSAVQSAVMVAEELPGDALTEQLRHAVGAYLAPDVAVTHPTDRGDR
  soluble on expression in E. coli: not soluble

## MGSDKIHHHHHHMSSASLLWCHSGVSTVRFGERIFTLVAGDLLFAPEEAQVADDSQGLVLNIRFETLNIMGPARRIHLGHVWNDRLTFEYSRSLFGKETLSPDIARLFTDRVPTPPLPAPRKARAVAQVLVSNPADQTSLEEFAEIQGVSARTLQRQFLKSTGYSFSEWRAAQRVCVAASLLAHDFSISVVANLVGFAATSSLTRAFRRHTGATPSTFTTGQIGMGSAGHPPRIPATTTFAEAHQDQQLWIYSGTATVTTPGYCRFMGQGDMVTIPAGTQTRIDVAAGSIAFPVPVGLDEWGMDLTRVVAVNNQQPKPLTILEQSEWSKLSEELLNTPVPVQM
  soluble on expression in E. coli: not soluble

## LESKNMTWYRMLLVTPVRQGEKVRKFFLHAFHSFEYRALSSGTEEEGLVLTVNDSERTEEIFSCCEKMKAFCKNFLGETPQILCSRAYQQGDDSSLLYEQTKAYAKGRSAEQILIVPQNAEEGDGTDTLLKRVQTYIRNHYTERLTLADIAEAVHVSSSYLSRFYKLKAGENLFDTINSLRVEKAKELLLRGDKKIYEIAALTGFEDTAYFSKVFKKYAGCPPKEYEQSGGRNL
  soluble on expression in E. coli: not soluble

## MEQLNICIDIDGTITDAYYWIDLCNSYFKTSITEKDATQYYIHKILNVPLEEYNEFYEKYKYKLHSEQKLRKDVKSVITKLSQNNNIFFVTARERDLTILTYSYLRKKEIPYDSLFILGTHHKVPTARQLNCDLFIEDNYDNALELSKAGFKVLLIDTYYNRKPLNQNIIRFYNWDEVYGIVDRLFEKSEAI
  soluble on expression in E. coli: not soluble

## GAMDPMIIRGIRGARINNEIFNLGLKFQILNADVVATKKHVLHAINQAKTKKPIAKSFWMEILVRASGQRQIHEAIKIIGAKDGNVCLICEDEETFRKIYELIGGEIDDSVLEINEDKERLIREIFKIRGFGNVVERVLEKIALIELKKE
  soluble on expression in E. coli: soluble

## MGSDKIHHHHHHMSEAINHGIIKSYVDGLTTSTLLMPNLPTAEHAVALAKNYPGLFVGQHTNFLLGKPCADPCMIPSLVDEQGNFHRSSYYRQQKQVTFVYEEVRLETIAQLTRFKELTGHYPEHFDCHSIGDEVVDQVFLELAEEYGLHTTLKYSGEKEYPPQQGYFQVTHLLESGALSYIHEGVSVENFLEDDFGLLRMPESAIAEMHFDVGYLDQFVLDNSSYTTLRCKELATICDPRVRQWFEEQGIERITFGDLKK
  soluble on expression in E. coli: not soluble

## MGSDKIHHHHHHMFSSQKLKERRKKLGLSQAQTADKLGISRPSYFNWEIGKTKPNQKNLDKLAHLLKVDSAYFLSQHDIVEIYTRLNESNKTKTLKYSQYLLEQQDKERNLMKNKRYPYRVYEKLSAGTGYSYFGDGNFDTVFYDEEIDHDFASWIFGDSMEPIFLNGEVALIKQTGFDYDGAIYAIDWDGQTYIKKVYREETGLRLVSLNKKYADKFAPYDENPRIIGLIVGNFIPLEG
  soluble on expression in E. coli: not soluble

## MSRPPSRPRMMCARVLLLLSVTGLVLACETGPSSGDYEQAVMQDRVQRDMQMREKESVLPPGRREAFRGLNFYEVDPAYRYTVPLRRFETPDTVMIPESTGDLRPQQRIGEVTVPLPEGPEELVVFRGEGDTPRGRLWIPFADSTNRHATYKGGRYVDLTSTDSDSVVVDFNRAYNPTCAYNPDFACPLPPPENRIAVPVAAGEKRPTFGG
  soluble on expression in E. coli: soluble

## MSSGVAAPQPSSCVPSRVSVLSMDFEDIYRFFQDPPPHYLSKELAVCYVLAVLRHEDSYGTELIQHLETHWPNYRLSDTVLYTALKFLEDEQIISGYWKKVEGRGRPRRMYQLAQANDDRSRDLAQLWERYLSSSAATDRQLIPVEAR
  soluble on expression in E. coli: soluble
